{"source": "patent US20180207294A1", "about": "“NON-ALCOHOLIC FATTY LIVER REGULATING FACTOR 14-3-3 PROTEIN” (Korea University Research and Business Foundation, priority 2015, published 2018)", "biological_target": "T1, 14-3-3β and PPARγ2 (Homo sapiens, UniProt P37231)", "T1 construct": "expressed in transfected cells; host or cells: HEK-293T", "T1 sequence (P37231 1-505)": "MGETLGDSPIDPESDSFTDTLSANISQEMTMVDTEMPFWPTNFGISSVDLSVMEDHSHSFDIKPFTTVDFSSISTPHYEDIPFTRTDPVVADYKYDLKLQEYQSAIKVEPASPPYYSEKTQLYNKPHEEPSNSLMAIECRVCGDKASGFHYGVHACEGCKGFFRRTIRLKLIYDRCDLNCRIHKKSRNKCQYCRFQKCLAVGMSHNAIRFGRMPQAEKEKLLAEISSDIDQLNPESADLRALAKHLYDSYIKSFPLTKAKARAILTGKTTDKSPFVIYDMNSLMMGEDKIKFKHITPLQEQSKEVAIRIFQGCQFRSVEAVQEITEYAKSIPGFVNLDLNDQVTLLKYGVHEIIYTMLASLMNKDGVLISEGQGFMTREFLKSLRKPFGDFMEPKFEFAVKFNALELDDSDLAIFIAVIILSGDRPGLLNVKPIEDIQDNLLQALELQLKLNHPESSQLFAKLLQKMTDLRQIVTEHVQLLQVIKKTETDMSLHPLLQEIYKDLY", "T1 sequence (P31946 1-246 partner)": "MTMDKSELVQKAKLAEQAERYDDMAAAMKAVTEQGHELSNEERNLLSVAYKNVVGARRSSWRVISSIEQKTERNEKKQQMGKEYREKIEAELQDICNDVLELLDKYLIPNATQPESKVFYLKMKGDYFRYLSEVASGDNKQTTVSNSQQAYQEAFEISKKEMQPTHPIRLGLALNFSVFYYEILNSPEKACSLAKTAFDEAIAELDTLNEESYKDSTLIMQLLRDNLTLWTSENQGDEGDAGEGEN", "assay": "Competitive GST-pull down assay, 14-3-3β / PPARγ2 binding under 14-3-3γ overexpression", "details": "as expression amount of 14-3-3γ was increased (HA-14-3-3γ DNA 2 and 4 μg); 10 μM pioglitazone; FIG. 5A", "description": "From the previous experimental results, it was verified that 14-3-3β and 14-3-3γ were bound to the phosphorylated serine 273 residue of PPARγ2, and it was determined that the two proteins would competitively bind to the same residue. Thus, GST-pull down assay was carried out to verify competitive binding of 14-3-3β and 14-3-3γ with PPARγ2.\nHEK-293T cells were seeded in a 100 mm plate at a density of 2×10^6 cells per each well, and then transfected with mGST-PPARγ2DNA (4 μg), GFP-14-3-3β DNA (4 μg) or GFP-14-3-3γ DNA (4 μg), and HA-14-3-3β DNA (2 and 4 μg) or HA-14-3-3γ DNA (2 and 4 μg) using an E-fection plus reagent (Lugen). A ratio of DNA to the E-fection plus reagent was 1:2 and this method was performed according to a manufacturer's manual. After transfection, the corresponding cells were treated with 10 μM of pioglitazone (Pio, Santa Cruz) for 24 hours, washed with ice-cold PBS, and lysed using 500 μl/well of a lysis buffer (150 mM NaCl, 1 mM EDTA, 1% Nonidet P-40, 5% glycerol, 25 mM tris-HCl, pH 7.5, protease inhibitor added), and the lysed cells were centrifuged at 10,000×g and 4° C. for 10 minutes to extract proteins. […]", "data": [{"substance": "14-3-3γ: 14-3-3 isoform protein, overexpressed by DNA transfection; regulating factor that decreases transcriptional activity of PPARγ2", "values": [{"measurement": "binding between 14-3-3β and PPARγ2", "result": "reduced"}]}]}
